# Laboratory results as given in patent US20240254223A1 (NOVIMMUNE, published 2024).
# T1: high affinity trimeric IL-2R (IL-2Rα, IL-2Rβ and IL-2Rγ) on HEK-Blue IL-2 cells (UniProt P01589 22-272; P14784 27-551; P31785 23-369)
# T1 sequence (looked up) 1: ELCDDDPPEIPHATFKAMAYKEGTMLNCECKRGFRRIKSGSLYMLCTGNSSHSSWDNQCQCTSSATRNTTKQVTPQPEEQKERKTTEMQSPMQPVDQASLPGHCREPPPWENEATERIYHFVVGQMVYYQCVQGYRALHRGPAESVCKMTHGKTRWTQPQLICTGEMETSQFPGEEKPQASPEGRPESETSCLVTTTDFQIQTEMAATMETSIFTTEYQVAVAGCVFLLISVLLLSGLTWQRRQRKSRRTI
# T1 sequence (looked up) 2: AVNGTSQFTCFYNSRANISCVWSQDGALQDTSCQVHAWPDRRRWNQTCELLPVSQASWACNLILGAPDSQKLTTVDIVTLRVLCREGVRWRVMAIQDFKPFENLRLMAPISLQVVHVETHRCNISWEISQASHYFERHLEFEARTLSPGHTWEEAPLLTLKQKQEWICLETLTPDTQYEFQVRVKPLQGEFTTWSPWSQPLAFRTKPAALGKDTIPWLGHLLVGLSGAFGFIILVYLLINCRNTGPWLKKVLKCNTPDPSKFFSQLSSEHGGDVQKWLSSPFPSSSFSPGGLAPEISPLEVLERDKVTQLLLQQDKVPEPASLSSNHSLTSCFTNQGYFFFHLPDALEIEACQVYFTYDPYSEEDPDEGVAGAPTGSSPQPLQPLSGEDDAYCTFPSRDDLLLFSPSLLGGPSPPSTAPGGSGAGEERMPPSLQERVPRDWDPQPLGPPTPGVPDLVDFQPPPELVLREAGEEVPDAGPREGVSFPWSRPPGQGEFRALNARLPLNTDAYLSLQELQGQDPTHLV
# T1 sequence (looked up) 3: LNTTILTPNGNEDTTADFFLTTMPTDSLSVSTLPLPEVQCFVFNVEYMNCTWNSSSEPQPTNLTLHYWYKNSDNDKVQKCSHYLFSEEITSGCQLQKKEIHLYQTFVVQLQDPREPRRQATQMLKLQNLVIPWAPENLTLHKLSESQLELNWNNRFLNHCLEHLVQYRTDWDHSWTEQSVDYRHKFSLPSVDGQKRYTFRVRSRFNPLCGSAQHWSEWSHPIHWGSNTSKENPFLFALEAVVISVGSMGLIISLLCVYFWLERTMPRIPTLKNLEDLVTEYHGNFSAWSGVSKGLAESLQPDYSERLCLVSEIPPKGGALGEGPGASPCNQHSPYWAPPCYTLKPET
# T2: low-moderate affinity dimeric IL-2R (IL-2Rβ and IL-2Rγ) on HEK-Blue CD122/CD132 cells (UniProt P14784 27-551; P31785 23-369, limits assumed)
# T2 sequence (looked up) 1: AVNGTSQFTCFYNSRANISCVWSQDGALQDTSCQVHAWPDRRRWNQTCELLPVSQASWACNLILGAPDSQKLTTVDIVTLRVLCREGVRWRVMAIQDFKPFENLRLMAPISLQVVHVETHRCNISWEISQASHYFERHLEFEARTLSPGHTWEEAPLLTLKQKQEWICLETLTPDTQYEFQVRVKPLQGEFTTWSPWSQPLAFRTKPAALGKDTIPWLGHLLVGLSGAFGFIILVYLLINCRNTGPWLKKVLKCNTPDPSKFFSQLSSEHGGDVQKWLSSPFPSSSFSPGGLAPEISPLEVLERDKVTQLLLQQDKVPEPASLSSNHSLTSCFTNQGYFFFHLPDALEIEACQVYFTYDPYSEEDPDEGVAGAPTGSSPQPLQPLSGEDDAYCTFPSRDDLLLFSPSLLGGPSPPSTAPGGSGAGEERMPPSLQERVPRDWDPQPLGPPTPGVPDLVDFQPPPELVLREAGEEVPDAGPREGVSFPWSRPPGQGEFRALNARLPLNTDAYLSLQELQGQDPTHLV
# T2 sequence (looked up) 2: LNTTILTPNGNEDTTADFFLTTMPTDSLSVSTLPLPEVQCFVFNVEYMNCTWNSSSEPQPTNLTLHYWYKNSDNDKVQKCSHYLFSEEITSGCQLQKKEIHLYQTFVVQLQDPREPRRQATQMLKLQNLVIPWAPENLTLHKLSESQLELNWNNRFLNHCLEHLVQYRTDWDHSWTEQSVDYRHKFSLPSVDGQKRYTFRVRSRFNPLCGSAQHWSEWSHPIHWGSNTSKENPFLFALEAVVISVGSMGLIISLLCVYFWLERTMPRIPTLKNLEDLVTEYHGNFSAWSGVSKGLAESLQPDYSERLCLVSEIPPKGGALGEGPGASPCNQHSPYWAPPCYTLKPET
# Experiments:
# His-tagged human CD47 = biological target: T3, His-tagged human CD47 (human, UniProt Q08722 19-139, limits assumed); experiment: BLI, His-CD47 on HIS1K sensor, after MMP-9 treatment
# T3 construct: loaded on HIS1K biosensors at 2.5 µg/mL; also called target antigen; not shown: His tag
# Protocol: The capacity of the masking domains to inhibit binding activity of the antibody was evaluated by Bio-Layer Interferometry (BLI). […] Binding experiments were performed to evaluate the masking efficiency and the binding recovery after cleavage of the masking domains. BLI was performed on an Octet RED96 system (Sartorius). His-tagged human CD47 was diluted at 2.5 μg/mL in Kinetic Buffer (KB) (Sartorius) and loaded on HIS1K biosensors (anti-His tag antibody biosensors, Sartorius) for 300 seconds. Loaded biosensors were dipped into antibodies diluted at 15 μg/mL in KB for 300 seconds to monitor association. Then, biosensors were transferred in KB for dissociation for 60 seconds. Binding profiles were then analyzed with ForteBio Data Analysis software.
# [1] = biological target: T4, CD47 at the surface of Peak cells (human, UniProt Q08722 19-323); experiment: flow cytometry, Peak cells, after MMP-9 treatment
# T4 construct: whole, on cells; also called cell surface CD47
# Protocol: Binding activity of antibody-cytokine/receptor fusions before and after cleavage was also evaluated by flow cytometry. Peak cells derived from HEK 293 which are human cells expressing CD47 were used to evaluate masking efficacy and binding recovery to CD47 by flow cytometry. Peak cells were diluted in cold FACS buffer (PBS, 2% BSA) to 1.2×10⁶ cells/mL. 3×10⁵ cells/well were added in a 96 well V-bottom plate. The plate was then centrifugated for 5 min at 1300 rpm, 4° C. Supernatants were removed and cells were washed twice using FACS buffer. A serial dilution of antibody-cytokine/receptor fusions previously digested with MMP-9 or not digested as described above was prepared in FACS buffer. An irrelevant antibody was included. Then, 150 μL of each diluted antibody were added in corresponding well and incubated for 30 min at 4° C. Cells were washed twice with FACS buffer and 100 μL of a mouse anti human Fc-PE conjugated secondary antibody were added and the plate was incubated for 20 min at 4° C. Cells were then washed twice with FACS buffer. Finally, 150 μL of SYTOX blue dead cell stain (ThermoFisher) diluted to 1/5000 in FACS buffer were added before detection by flow cytometry with Cytoflex (Beckman Coulter). Acquisition was performed with 10000 events for each well. Data were analyzed by FlowJo software.
# [2] = biological target: T1, high affinity trimeric IL-2R (IL-2Rα, …); experiment: cell-based or functional assay
# [3] = biological target: T2, low-moderate affinity dimeric IL-2R …; experiment: cell-based or functional assay
Binder,Binding after cleavage (BLI) (His-tagged human CD47) [nm],EC50 [1] [nM],"EC50 after cleavage IL-2, HEK Blue IL-2 αβγ reporter assay [2] [nM]","EC50 after cleavage IL-2, HEK Blue IL-2 βγ reporter assay [3] [nM]"
"Construct No 1021 after cleavage by MMP-9 (antibody, MMP-9 digest of m35; the sample also holds the released IL-2Rα and IL-2; also called n1021 after cleavage; not shown: remnant of CM1 and linker after MMP-9 cleavage) light: DIQMTQSPSSLSASVGDRVTITCNVDQVIANWLNWYQQKPGKAPKLLIYAASSLQSGVPSRFSGSGSGTDFTLTISSLQPEDFATYYCQQMHPRAPKQFGQGTKVEIKRTVAAPSVFIFPPSDEQLKSGTASVVCLLNNFYPREAKVQWKVDNALQSGNSQESVTEQDSKDSTYSLSSTLTLSKADYEKHKVYACEVTHQGLSSPVTKSFNRGEC heavy: not shown",1.3,1.3,0.01,
"Construct No 530 after cleavage by MMP-9 (antibody, MMP-9 digest of m18; the sample also holds the released IL-2, IL-2Rα and IL-2Rβ; also called n530 after cleavage; not shown: remnant of CM1 and linker after MMP-9 cleavage) light: DIQMTQSPSSLSASVGDRVTITCNVDQVIANWLNWYQQKPGKAPKLLIYAASSLQSGVPSRFSGSGSGTDFTLTISSLQPEDFATYYCQQMHPRAPKQFGQGTKVEIKRTVAAPSVFIFPPSDEQLKSGTASVVCLLNNFYPREAKVQWKVDNALQSGNSQESVTEQDSKDSTYSLSSTLTLSKADYEKHKVYACEVTHQGLSSPVTKSFNRGEC heavy: not shown",,0.4,0.01,
"Construct No 1051 after cleavage by MMP-9 (antibody, MMP-9 digest of m36; the sample also holds the released IL-2Rα-(GGGGS)2-IL-2 fusion (no cleavable linker between the two); also called n1051 after cleavage; not shown: remnant of CM1 and linker after MMP-9 cleavage) light: DIQMTQSPSSLSASVGDRVTITCNVDQVIANWLNWYQQKPGKAPKLLIYAASSLQSGVPSRFSGSGSGTDFTLTISSLQPEDFATYYCQQMHPRAPKQFGQGTKVEIKRTVAAPSVFIFPPSDEQLKSGTASVVCLLNNFYPREAKVQWKVDNALQSGNSQESVTEQDSKDSTYSLSSTLTLSKADYEKHKVYACEVTHQGLSSPVTKSFNRGEC heavy: not shown",1.2,1.7,0.03,
"Construct No 281 after cleavage by MMP-9 (antibody, MMP-9 digest of m13; the sample also holds the released IL-2; also called n281 after cleavage; not shown: remnant of CM1 and linker after MMP-9 cleavage) light: DIQMTQSPSSLSASVGDRVTITCNVDQVIANWLNWYQQKPGKAPKLLIYAASSLQSGVPSRFSGSGSGTDFTLTISSLQPEDFATYYCQQMHPRAPKQFGQGTKVEIKRTVAAPSVFIFPPSDEQLKSGTASVVCLLNNFYPREAKVQWKVDNALQSGNSQESVTEQDSKDSTYSLSSTLTLSKADYEKHKVYACEVTHQGLSSPVTKSFNRGEC heavy: not shown",,0.9,0.01,
"Construct No 2 after cleavage by MMP-9 (antibody, MMP-9 digest of m3; the sample also holds the released IL-2; also called n2 after cleavage; not shown: remnant of CM1 and linker after MMP-9 cleavage) light: DIQMTQSPSSLSASVGDRVTITCNVDQVIANWLNWYQQKPGKAPKLLIYAASSLQSGVPSRFSGSGSGTDFTLTISSLQPEDFATYYCQQMHPRAPKQFGQGTKVEIKRTVAAPSVFIFPPSDEQLKSGTASVVCLLNNFYPREAKVQWKVDNALQSGNSQESVTEQDSKDSTYSLSSTLTLSKADYEKHKVYACEVTHQGLSSPVTKSFNRGEC heavy: not shown",,0.4,0.11,0.09
"Construct No 545 after cleavage by MMP-9 (antibody, MMP-9 digest of m19; the sample also holds the released IL-2, IL-2Rα and IL-2Rβ; also called n545 after cleavage; not shown: remnant of CM1 and linker after MMP-9 cleavage) light: DIQMTQSPSSLSASVGDRVTITCNVDQVIANWLNWYQQKPGKAPKLLIYAASSLQSGVPSRFSGSGSGTDFTLTISSLQPEDFATYYCQQMHPRAPKQFGQGTKVEIKRTVAAPSVFIFPPSDEQLKSGTASVVCLLNNFYPREAKVQWKVDNALQSGNSQESVTEQDSKDSTYSLSSTLTLSKADYEKHKVYACEVTHQGLSSPVTKSFNRGEC heavy: not shown",,0.6,0.01,
